According to publication PMC5009254, “Accessory Interaction Motifs in the Atg19 Cargo Receptor Enable Strong Binding to the Clustered Ubiquitin-related Atg8 Protein*^([image sbox.jpg])” (The Journal of Biological Chemistry, 2016):
Where no end group is shown, it is not given here.

Columns and labels:
Atg8 [1] = target: T1, Atg8 (Saccharomyces cerevisiae, UniProt P38182, K26P); assay: biochemical; format: binding
T1 construct: Atg8 1–117; GST (N, cleaved yes); made in house; host or cells: Escherichia coli Rosetta pLysS DE3
From the text: To test this hypothesis, we titrated 12 amino acid-long peptides containing the respective LIR-like motif in the center (Fig. 1) into labeled Atg8 and recorded the CSCs (Fig. 5). […] We attempted to determine a more exact Kd for the FYSF and LPEL peptides by isothermal titration calorimetry.
To corroborate our NMR-based interactions studies, we attempted to measure their interaction with Atg8 by isothermal titration calorimetry.

[2] = target: GST-Atg19 CTD F376A, F379A, L384A, L387A (S. cerevisiae) (UniProt P35193); assay: microscopy-based protein-protein interaction assay on beads; glutathione-Sepharose beads coated with GST-Atg19 CTDs, washed, in 1 μM EGFP-Atg8 solution, 25 mM HEPES pH 7.5, 150 mM NaCl, 1 mM DTT; imaged by spinning disc microscopy without washing; signal normalized to wild type
[3] = target: GST-Atg19 CTD L384A, L387A (S. cerevisiae) (UniProt P35193); assay: as above
[4] = target: GST-Atg19 CTD W412A (S. cerevisiae) (UniProt P35193); assay: as above
[5] = target: T2, Atg8 K26P, 15N isotope-labeled (S. cerevisiae, UniProt P38182 1-117, K26P, 15N isotope-labeled); assay: NMR titration; unlabeled Atg19 CTD or peptide titrated into 15N-labeled Atg8 K26P; 2D 15N HSQC at 25 °C; Atg8 135-500 μM, Atg19 C terminus 15-1000 μM; Kd estimated as the median of one-site saturation fits of CSCs of four to twelve Atg8 residues; settings: both partners purified
T2 construct: Atg8, S. cerevisiae, amino acids 1-117, K26P mutant used for stability in NMR; Cloned in pGEX-4-T1; GST cut off with thrombin; also called [15N]Atg8; K26P mutant of Atg8; source: E. coli Rosetta pLysS DE3 in M9 minimal medium with [15N]ammonium chloride, purified (glutathione beads, thrombin, SEC)
T2 sequence (looked up): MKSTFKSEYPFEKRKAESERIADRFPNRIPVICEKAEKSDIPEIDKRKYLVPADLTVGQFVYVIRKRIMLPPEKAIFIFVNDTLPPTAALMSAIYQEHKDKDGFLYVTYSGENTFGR

EGFP-Atg8, P38182 = target: T3, EGFP-Atg8, P38182; assay: microscopy-based protein-protein interaction assay (GST-Atg19 CTD on glutathione-Sepharose beads, spinning disc microscopy); settings: chain shown with the change; 1 μm EGFP-Atg8 solution; parent: 100
T3 chain: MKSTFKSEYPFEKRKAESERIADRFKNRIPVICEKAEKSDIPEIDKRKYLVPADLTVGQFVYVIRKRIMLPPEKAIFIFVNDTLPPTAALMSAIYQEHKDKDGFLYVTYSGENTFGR

[6] = target: Atg8 used for isothermal titration calorimetry (S. cerevisiae) (UniProt P38182); assay: ITC; peptides titrated, Atg8; conditions not given
EGFP-Atg8 = assay: Microscopy-based protein-protein interaction assay: EGFP-Atg8 recruited to glutathione-Sepharose beads coated with GST-Atg19 CTD; format: binding, Saccharomyces cerevisiae; settings: GST-tagged Atg19 CTD on glutathione-Sepharose beads, 1 μM EGFP-Atg8, 30 min, spinning disc microscopy; mean of 3 experiments
From the text: To confirm the contributions of the ^376FYSF^379 and ^384LPEL^387 motifs for Atg8 binding, we employed a microscopy-based protein-protein interaction assay. To this end, EGFP-Atg8 in solution was recruited to glutathione-Sepharose beads coated with GST-Atg19 C termini (Fig. 6, A and B). Atg8 bound efficiently to beads coated with the wild-type C terminus. Upon introduction of the W412A mutation, the Atg8 signal on the beads dropped to 23%.
FIGURE 6. Accessory LIR motifs contribute to Atg8 binding in a microscopy-based interaction assay. A, glutathione-Sepharose beads were coated with GST-tagged Atg19 CTDs, washed, incubated in a 1 μM EGFP-Atg8 solution, and imaged by spinning disc microscopy. B, signal intensity of EGFP-Atg8 decreased for the LIR and accessory LIR mutants. C, quantification of the EGFP signal (mean ± S.D. from 3 experiments) on GST-Atg19 CTD-coated beads normalized to the mean signal on wild-type GST-Atg19 CTD-coated beads. Scale bars = 30 μm. TEXT PRINTED IN THE PICTURE: (B) W412A: relative binding (%): 23% | (B) L384, L387A: relative binding (%): 47% | (B) F376, F379, L384, L387A: relative binding (%): 25% | (B) L384, L387, W412A: relative binding (%): 7% | (B) F376, F379, L384, L387, W412A: relative binding (%): 2%
Glutathione-Sepharose 4B beads (GE Healthcare) were incubated with GST-tagged Atg19 C terminus for 1 h at 4 °C. After washing the beads three times with 25 mM HEPES (pH 7.5), 150 mM NaCl, and 1 mM DTT, 1 μl of a 1:1 resuspension of glutathione beads in protein solution was added to a 1 μM solution of EGFP-Atg8 30 min prior to imaging. Microscopic images were acquired using a confocal spinning disc microscope (Visitron) and processed with ImageJ software.

Atg8 [7] = settings: ITC-based Kd determination; read-out: Kd by ITC, full-length Atg19; cited from earlier work

## GDDNEKALTWEEL [canonical LIR peptide]
Atg8 [1]
  Kd: 2.8 µM

## EGFP-Atg8 (from UniProt P38182 1-116) (natural protein)
[2]
  EGFP-Atg8 signal on beads, percent of wild type: 25%
[3]
  EGFP-Atg8 signal on beads, percent of wild type: 47%
[4]
  EGFP-Atg8 signal on beads, percent of wild type: 23%

B1: 12 amino acid peptide containing 384LPEL387 of Atg19 (peptide)
chain: QIDTLPELDDSS
[5]
  Kd: ~590 µM

B2: GST-Atg19 CTD, wild type, P35193 L384A; L387A; W412A (protein)
chain: SAESLQASQEPFYSFQIDTAPEADDSSIISTSISLSYDGDDNEKALTAEEL
EGFP-Atg8, P38182
  percent of parent: 7%

B3: Atg19 C-terminal domain (amino acids 365-415), wild type (domain or fragment, S. cerevisiae, UniProt P35193 365-415, looked up)
chain: SAESLQASQEPFYSFQIDTLPELDDSSIISTSISLSYDGDDNEKALTWEEL
notes: Atg19, S. cerevisiae, C-terminal domain, amino acids 365-415; also called Atg19 CTD; wild-type Atg19 C terminus; source: E. coli Rosetta pLysS DE3, purified (glutathione beads, thrombin, SEC)
[5]
  Kd: ~130 µM

B4: GST-Atg19 CTD, wild type, P35193 F376A; F379A; L384A; L387A; W412A (protein)
chain: SAESLQASQEPAYSAQIDTAPEADDSSIISTSISLSYDGDDNEKALTAEEL
EGFP-Atg8, P38182
  percent of parent: 2%

B5: Atg19 W412A CTD (amino acids 365-415) (domain or fragment, S. cerevisiae, UniProt P35193 365-415, looked up)
chain: SAESLQASQEPFYSFQIDTLPELDDSSIISTSISLSYDGDDNEKALTAEEL
notes: Atg19, S. cerevisiae, C-terminal domain, amino acids 365-415, W412A; also called WA; W412A mutant Atg19 CTD; source: E. coli Rosetta pLysS DE3, purified (glutathione beads, thrombin, SEC)
[5]
  Kd: 180 µM

B6: Atg19 CTD F376A, F379A, W412A (amino acids 365-415) (domain or fragment, S. cerevisiae, UniProt P35193 365-415, looked up)
chain: SAESLQASQEPAYSAQIDTLPELDDSSIISTSISLSYDGDDNEKALTAEEL
notes: Atg19, S. cerevisiae, C-terminal domain, amino acids 365-415, F376A, F379A, W412A; also called FFWA; triple mutant C terminus; source: E. coli Rosetta pLysS DE3, purified (glutathione beads, thrombin, SEC)
[5]
  Kd: 290 µM

B7: Atg19 CTD L384A, L387A (amino acids 365-415) (domain or fragment, S. cerevisiae, UniProt P35193 365-415, looked up)
chain: SAESLQASQEPFYSFQIDTAPEADDSSIISTSISLSYDGDDNEKALTWEEL
notes: Atg19, S. cerevisiae, C-terminal domain, amino acids 365-415, L384A, L387A; also called LLA; source: E. coli Rosetta pLysS DE3, purified (glutathione beads, thrombin, SEC)
[5]
  Kd: ~70 µM

B8: 12 amino acid peptide containing 376FYSF379 of Atg19 (peptide)
chain: SQEPFYSFQIDT
[5]
  Kd: ~330 µM

B9: peptide containing the canonical 412WEEL415 motif (Atg19, 403…415) (peptide)
peptide: GDDNEKALTWEEL
[6]
  Kd: 2.8 µM

B10: W412A (protein, UniProt P35193 1-415, looked up, variant W412A)
Autophagy-related protein 19: MNNSKTNQQMNTSMGYPLTVYDECNKFQLIVPTLDANIMLWCIGQLSLLNDSNGCKHLFWQPNDKSNVRILLNNYDYGHLFKYLQCQRKCSVYIGEGTLKKYNLTISTSFDNFLDLTPSEEKESLCREDAHEDPVSPKAGSEEEISPNSTSNVVVSRECLDNFMKQLLKLEESLNKLELEQKVTNKEPNHRISGTIDIPEDRSELVNFFTELKTVKQLEDVFQRYHDYERLSQECDSKTEIASDHSKKETKIEVEPPNERSLQITMNQRDNSLYFQLFNNTNSVLAGNCKLKFTDAGDKPTTQIIDMGPHEIGIKEYKEYRYFPYALDLEAGSTIEIENQYGEVIFLGKYGSSPMINLRPPSRLSAESLQASQEPFYSFQIDTLPELDDSSIISTSISLSYDGDDNEKALTAEEL
EGFP-Atg8
  relative binding (EGFP-Atg8 signal on beads, normalized to wild-type GST-Atg19 CTD): 23%

B11: full-length Atg19: full-length Atg19 cargo receptor of S. cerevisiae (protein, UniProt P35193 1-415, looked up)
chain: MNNSKTNQQMNTSMGYPLTVYDECNKFQLIVPTLDANIMLWCIGQLSLLNDSNGCKHLFWQPNDKSNVRILLNNYDYGHLFKYLQCQRKCSVYIGEGTLKKYNLTISTSFDNFLDLTPSEEKESLCREDAHEDPVSPKAGSEEEISPNSTSNVVVSRECLDNFMKQLLKLEESLNKLELEQKVTNKEPNHRISGTIDIPEDRSELVNFFTELKTVKQLEDVFQRYHDYERLSQECDSKTEIASDHSKKETKIEVEPPNERSLQITMNQRDNSLYFQLFNNTNSVLAGNCKLKFTDAGDKPTTQIIDMGPHEIGIKEYKEYRYFPYALDLEAGSTIEIENQYGEVIFLGKYGSSPMINLRPPSRLSAESLQASQEPFYSFQIDTLPELDDSSIISTSISLSYDGDDNEKALTWEEL
modifications: full-length
notes: full-length Atg19 cargo receptor of S. cerevisiae
Atg8 [7]
  Kd: 35 µM

B12: L384A, L387A (protein, UniProt P35193 1-415, looked up, variant L384A L387A)
Autophagy-related protein 19: MNNSKTNQQMNTSMGYPLTVYDECNKFQLIVPTLDANIMLWCIGQLSLLNDSNGCKHLFWQPNDKSNVRILLNNYDYGHLFKYLQCQRKCSVYIGEGTLKKYNLTISTSFDNFLDLTPSEEKESLCREDAHEDPVSPKAGSEEEISPNSTSNVVVSRECLDNFMKQLLKLEESLNKLELEQKVTNKEPNHRISGTIDIPEDRSELVNFFTELKTVKQLEDVFQRYHDYERLSQECDSKTEIASDHSKKETKIEVEPPNERSLQITMNQRDNSLYFQLFNNTNSVLAGNCKLKFTDAGDKPTTQIIDMGPHEIGIKEYKEYRYFPYALDLEAGSTIEIENQYGEVIFLGKYGSSPMINLRPPSRLSAESLQASQEPFYSFQIDTAPEADDSSIISTSISLSYDGDDNEKALTWEEL
EGFP-Atg8
  relative binding (EGFP-Atg8 signal on beads, normalized to wild-type GST-Atg19 CTD): 47%

B13: L384, L387, W412A (protein, UniProt P35193 1-415, looked up, variant L384A L387A W412A)
Autophagy-related protein 19: MNNSKTNQQMNTSMGYPLTVYDECNKFQLIVPTLDANIMLWCIGQLSLLNDSNGCKHLFWQPNDKSNVRILLNNYDYGHLFKYLQCQRKCSVYIGEGTLKKYNLTISTSFDNFLDLTPSEEKESLCREDAHEDPVSPKAGSEEEISPNSTSNVVVSRECLDNFMKQLLKLEESLNKLELEQKVTNKEPNHRISGTIDIPEDRSELVNFFTELKTVKQLEDVFQRYHDYERLSQECDSKTEIASDHSKKETKIEVEPPNERSLQITMNQRDNSLYFQLFNNTNSVLAGNCKLKFTDAGDKPTTQIIDMGPHEIGIKEYKEYRYFPYALDLEAGSTIEIENQYGEVIFLGKYGSSPMINLRPPSRLSAESLQASQEPFYSFQIDTAPEADDSSIISTSISLSYDGDDNEKALTAEEL
EGFP-Atg8
  relative binding (EGFP-Atg8 signal on beads, normalized to wild-type GST-Atg19 CTD): 7%

B14: F376, F379, L384, L387A (protein, UniProt P35193 1-415, looked up, variant F376A F379A L384A L387A)
Autophagy-related protein 19: MNNSKTNQQMNTSMGYPLTVYDECNKFQLIVPTLDANIMLWCIGQLSLLNDSNGCKHLFWQPNDKSNVRILLNNYDYGHLFKYLQCQRKCSVYIGEGTLKKYNLTISTSFDNFLDLTPSEEKESLCREDAHEDPVSPKAGSEEEISPNSTSNVVVSRECLDNFMKQLLKLEESLNKLELEQKVTNKEPNHRISGTIDIPEDRSELVNFFTELKTVKQLEDVFQRYHDYERLSQECDSKTEIASDHSKKETKIEVEPPNERSLQITMNQRDNSLYFQLFNNTNSVLAGNCKLKFTDAGDKPTTQIIDMGPHEIGIKEYKEYRYFPYALDLEAGSTIEIENQYGEVIFLGKYGSSPMINLRPPSRLSAESLQASQEPAYSAQIDTAPEADDSSIISTSISLSYDGDDNEKALTWEEL
EGFP-Atg8
  relative binding (EGFP-Atg8 signal on beads, normalized to wild-type GST-Atg19 CTD): 25%

B15: Atg19 CTD (amino acids 365-407) F376A, F379A, L384A, L387A (domain or fragment, S. cerevisiae, UniProt P35193 365-407, looked up)
chain: SAESLQASQEPAYSAQIDTAPEADDSSIISTSISLSYDGDDNE
notes: Atg19, S. cerevisiae, amino acids 365-407 (last eight amino acids 408-415 deleted), F376A, F379A, L384A, L387A; also called FFLLΔ; source: E. coli Rosetta pLysS DE3, purified (glutathione beads, thrombin, SEC)
[5]
  Kd: 600 µM
